14 molecules from patent US20160340421A1 (Regeneron, published 2016) can be followed below.

Assay [1] has as its target T1, Human GDF8 homodimer (mature human Growth and Differentiation Factor-8) (human, UniProt O14793 267-375).
T1 sequence: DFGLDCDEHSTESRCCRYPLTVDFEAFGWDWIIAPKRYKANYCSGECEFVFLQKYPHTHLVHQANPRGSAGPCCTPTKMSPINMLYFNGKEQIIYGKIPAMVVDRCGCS
The assay is described as follows: cell-based or functional assay.

Assay [2] deals with T2, hGDF11 homodimer (human, UniProt O95390 299-407).
T2 sequence (looked up): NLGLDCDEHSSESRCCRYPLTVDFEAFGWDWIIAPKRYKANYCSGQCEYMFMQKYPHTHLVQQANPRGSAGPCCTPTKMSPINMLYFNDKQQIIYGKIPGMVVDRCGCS
The assay is described as follows: cell-based or functional assay.

Assay [3] deals with T1, Human GDF8 homodimer (mature human …). The experiment in a line: SPR, antibody captured, 25 nM antigen. How it is done: (§1) Equilibrium dissociation constants (KD values) for antigen binding to selected antibodies were determined by surface kinetics using a real-time biosensor surface plasmon resonance assay (BIACORE™ 2000). Each selected antibody was captured on either a goat anti-mouse IgG polyclonal antibody surface or a goat anti-hFc polyclonal antibody (Jackson Immuno Research Lab) surface created through direct chemical coupling to a BIACORE™ chip to form a captured antibody surface. Human GDF8 homodimer, hGDF11 homodimer, or hGDF5 homodimer at 25 nM was injected over the captured antibody surfaces, and antigen-antibody binding and dissociation were monitored in real time at room temperature. Kinetic analysis was performed to calculate KD, dissociation rate constants (kd), association rate constants (ka) and half-life of antigen/antibody complex dissociation (Table 2).
Background: SPR reads the build-up and loss of mass on a sensor chip optically.

Assay [4] has as its target T2, hGDF11 homodimer. The experiment in a line: SPR, antibody captured, 25 nM antigen. The protocol: as §1

Positions count from the first letter of the chain named.

A word on the Kd: it is the concentration at which binding is half-saturated. Read a high Kd as a looser complex.

B1: 22-G10 (antibody, V domains shown)
VH: QVHLKESGPTLVKPTQTLTLTCTFSGFSLSTSGVGVGWIRQPPGKALEWLALIYWNDDKRYSPSLKSRLTITKDTSKNQVVLTMTNMDPVDTATYYCTHTSRYNWHYGFLDYWGQGTTVTVSS
VL: AIQMTQSPSSLSASVGDRVTITCRASQGISNYLAWFQQKPGKAPKSLIYAASSLQSGVPSKFSGSGSGTDFTLTISSLQPEDFATYYCQQYNSYPLTFGGGTKVEIKR
For the molecule B1, in assay [1], the “IC50, GDF8-inducible luciferase, A204/Smad2 cells, 0.8 nM GDF8” value (“IC50 … A204/Smad2 cells, 0.8 nM GDF8” for short) was 10.5 nM. In the assay with hGDF11 homodimer [2], the “IC50, GDF11-inducible luciferase, A204/Smad2 cells, 0.8 nM GDF11” value (“IC50 … A204/Smad2 cells, 0.8 nM GDF11” for short) was > 25 nM. In assay [3], this molecule registered a Kd of 0.25 nM and a T1/2 of 71 min. In addition, in the assay with hGDF11 homodimer [4], the affinity, expressed as Kd, was 0.73 nM and the T1/2 was 50 min.

B2: 3E2-1 (antibody, V domains shown)
VH: QVQLQQWGAGLLKPSETLSLTCAVYGGSFSGYYWSWIRQPPGKGLEWIGEINHSGNTNYNPSLKSRVTISVDTSKNQFSLKLNSVTAADTAVYYCARREATVTPYFDYWGQGTLVTVSS
VL: DIQLTQSPSFLSASVGDRVTITCWASQGISSYLAWYQQKPGKAPKLLIYAASTLQSGVPSRFSGSGSGTEFTLTISSLQPEDFATYYCQQLNSYPLTFGGGTKVEIK
For B2, in assay [3], binding was characterised by a dissociation constant (Kd) of 2.55 nM and the T1/2 came to 45 min. In the assay with hGDF11 homodimer [4], this molecule returned a Kd of 0.7 nM and a T1/2 of 79 min.

B3: 58C8 (antibody, V domains shown)
VH: EVQLLESGGGLVQPGGSLRLSCAASGFTSITYAMSWVRQAPGKGLEWVSAISVSGTNTYYADSVKGRFTISRDKSKNMLYLQMNSLRAEDTAVYYCAKDLLHNWKYGTFDIWGQGTMVTVSS
VL: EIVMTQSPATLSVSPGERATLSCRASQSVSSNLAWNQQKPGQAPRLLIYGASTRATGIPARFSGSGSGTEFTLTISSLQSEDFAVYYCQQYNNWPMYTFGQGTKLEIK
B3: the “IC50 … A204/Smad2 cells, 0.8 nM GDF8” value in assay [1] is 1.8 nM. Also, the “IC50 … A204/Smad2 cells, 0.8 nM GDF11” value with hGDF11 homodimer [2] is > 25 nM. In assay [3], this molecule displayed a Kd of 0.62 nM and a T1/2 of 56 min. In the assay with hGDF11 homodimer [4], this molecule had a Kd of 0.44 nM and a T1/2 of 30 min.

B4: 9B4-3 (antibody, V domains shown)
VH: EVQLLESGGGLVQPGESLRLSCAASGFTFSSYAMNWVRQAPGKGLEWVSTISGSGGYIYYADSVKGRFTISRDNSKNTLYLQMNSLRAEDTAVYFCAKDSRYNWNYGNFDYWGQGTLVTVSS
VL: EIVMTQSPATLSVSPGERATLSCRASQNVSSNLAWNKQKPGQAPRLLIYATSTRATGVPARFSASGSGTDFALTINSLQSEDFAVYYCQQYNNWPLTFGGGTKVEIK
Consider B4, for which, in assay [3], the Kd amounted to 1.18 nM and the T1/2 was 50 min. Moreover, in the assay with hGDF11 homodimer [4], the Kd was determined as 1.08 nM and the T1/2 was found to be 32 min.

B5: 20B12 (antibody, V domains shown)
VH: EVQLLESGGGLVQPGGSLRLSCAGSGITFSSYAMSWVRQAPGKGLEWVSAISGNGGTTNYADSVKGRFTISRDNSKNTLYLQMNSLRAEDTAVYYCAKERILTSSWTRYGIMDVWGQGTTVTVSS
VL: EIVMTQSPATLSMSPGERATLSCRASQSVSSNLAWYQQKPGQAPRLLIYGASTRATGIPARFSGSGSGTEFTLTISSLQSEDFAVYYCQQYNNWPLTFGGGTKLEIK
As for B5, in assay [1], the “IC50 … A204/Smad2 cells, 0.8 nM GDF8” value was > 20 nM. Further, the “IC50 … A204/Smad2 cells, 0.8 nM GDF11” value with hGDF11 homodimer [2] was > 25 nM. In assay [3], the affinity, expressed as Kd, was 0.86 nM and the T1/2 is 39 min. Further, in the assay with hGDF11 homodimer [4], the affinity, expressed as Kd, was 2.08 nM and the T1/2 is 2 min.

B6: 4B9 (antibody, V domains shown)
VH: B3 VH
VL: B5 VL with M13V, S30D, A34V, A43V, N93K, L104V
For the molecule B6, the “IC50 … A204/Smad2 cells, 0.8 nM GDF8” value in assay [1] amounted to 0.47 nM. Also, in the assay with hGDF11 homodimer [2], the “IC50 … A204/Smad2 cells, 0.8 nM GDF11” value is > 25 nM. In addition, in assay [3], the Kd was determined as 0.55 nM and the T1/2 was 55 min. In the assay with hGDF11 homodimer [4], this molecule registered a dissociation constant Kd of 1.09 nM and a T1/2 of 34 min.

B7: 4E3-7 (antibody, V domains shown)
VH: EVQLLESGGGLVQPGGSLRLSCVASRFTFSSNAMSWVRQAPGTGLEWVSAITGSGSRTYYADSVKGRFTISRDNSKNTVYLQMNSLRGEDTAVYYCAKDQGGTWNYGDFDYWGQGTLVTVSS
VL: B5 VL with M13V, I58L, E70D, L104V
As for B7, the “IC50 … A204/Smad2 cells, 0.8 nM GDF8” value in assay [1] is 10.4 nM. For the same molecule, in the assay with hGDF11 homodimer [2], the “IC50 … A204/Smad2 cells, 0.8 nM GDF11” value was > 25 nM. In assay [3], this molecule registered a Kd of 1.89 nM and a T1/2 of 27 min. In the assay with hGDF11 homodimer [4], this molecule yielded a Kd of 1.33 nM and a T1/2 of 29 min.

B8: 1H4-5 (antibody, V domains shown)
VH: QVQLVESGGDVVQPGRSLRLSCTASGFTFSSYGMHWVRQAPGRGLEWVAVISFDGKNKYYADSVKGRFTVSRDNSKNTLFLQMNSLRAEDTALYYCAKRIAATGYYYFYGLDVWGQGTTVTVSS
VL: B5 VL with V3M, M13V, A19G, T56S, I75V, L104V
Take B8: in assay [3], the dissociation constant (Kd) came to 0.95 nM and the T1/2 was determined as 54 min. In the assay with hGDF11 homodimer [4], the Kd was 1.48 nM and the T1/2 was 24 min.

B9: 19F2 (antibody, V domains shown)
VH: QVQLVESGGGVVQPGRSLRLSCEASGFTFSSSGMHWVRQAPGKGLQWVAVISYDGNNKFYEDSVKGRLTISRDNSNNTLWLQMNSLRVEDTAVYYCAKSGGRVGAAFAYWGQGTLVTVSS
VL: DIVNTQSPLSLPVTPGEPASISCRSSQSLLYGNGYNYLDWYLQKPGHSPQLLIYLGSNRGSGVPDRFSGSGSGTDFTLKISRVEAEDVGIYYCMQTLQTPFTFGPGTKMYIK
B9: the “IC50 … A204/Smad2 cells, 0.8 nM GDF8” value in assay [1] is > 20 nM. Moreover, in the assay with hGDF11 homodimer [2], the “IC50 … A204/Smad2 cells, 0.8 nM GDF11” value was > 25 nM. In addition, in assay [3], the Kd amounted to 0.5 nM and the T1/2 was determined as 38 min.

B10: 22-D3 (antibody, V domains shown)
VH: QVQLVQSGGGLVKPGGSLRLSCAASGFTFSSYSMNWVRQAPGKGLEWVSSISSSSSYIYYADSVKGRFTISRDNAKNSLYLQMNSLRAEDTAVYYCARDRGYTFGVDYWGQGTTVTVSS
VL: AIQMTQSPSSLSASVGDRVTITCRASQGIRNDLGWYQQKPGKAPKRLIYAASSLQSGVPSRFSGSGSGTEFTLTISSLQPEDFATYYCLQHNSYPYTFGQGTKVEIKR
For B10, the “IC50 … A204/Smad2 cells, 0.8 nM GDF8” value in assay [1] was > 20 nM. The “IC50 … A204/Smad2 cells, 0.8 nM GDF11” value in the assay with hGDF11 homodimer [2] is > 25 nM. In assay [3], this molecule displayed an equilibrium dissociation constant (Kd) of 1.23 nM and a T1/2 of 34 min. Besides, in the assay with hGDF11 homodimer [4], the affinity, expressed as Kd, was 1.09 nM and the T1/2 stood at 21 min.

B11: 22-E6 (antibody, V domains shown)
VH: QVQLVQSGPGLVKPSETLSLTCTVSGGSIITYSYYWGWIRQPPGKGLEWIGTIHHSGSTYYNPSLKSRVTISVDTSKNQFSLTLSSVTAADTAVYYCARDYYDSSGYYYNWFDPWGQGTMVTVSS
VL: B10 VL with Y94S, Y96W
On to B11, for which the “IC50 … A204/Smad2 cells, 0.8 nM GDF8” value in assay [1] worked out at 2.2 nM. For the same molecule, the “IC50 … A204/Smad2 cells, 0.8 nM GDF11” value in the assay with hGDF11 homodimer [2] was determined as 22.4 nM. In assay [3], the Kd came to 0.26 nM and the T1/2 is 148 min. In the assay with hGDF11 homodimer [4], this molecule yielded a Kd of 0.12 nM and a T1/2 of 87 min.

B12: 21-B9 (antibody, V domains shown)
VH: B11 VH with I30S, T31N, Y32S, S33N, I53T, H54Y, H55Y, S58T, T83K, M120T
VL: B10 VL with A1D, M4L, G28D, T72S, I75L, Y87F, N92H, S93I, Y96W, V104L
Consider B12, for which the “IC50 … A204/Smad2 cells, 0.8 nM GDF8” value in assay [1] was determined as 0.62 nM. For the same molecule, the “IC50 … A204/Smad2 cells, 0.8 nM GDF11” value in the assay with hGDF11 homodimer [2] was determined as 1.2 nM. In addition, the Kd in assay [3] was 0.12 nM; in the assay with hGDF11 homodimer [4], 0.064 nM. Besides, the T1/2 in assay [3] was 126 min; with hGDF11 homodimer [4], 133 min.

B13: 21-E9 (antibody, V domains shown)
VH: EVQLVQLGPGLVKPSETLSLTCTVSGGSISNSNYYWGWIRQPPGKGLEWIGTTYYSGTTYYNPSLKSRVTISVDTSKNQFSLKLSSVTAADTAVYYCARDYYDSSGYYYNWFDPWGQGTTVTVSS
VL: B10 VL with G28D, T72S, I75L, Y87F, N92H, S93I, Y96W
As for B13, the “IC50 … A204/Smad2 cells, 0.8 nM GDF8” value in assay [1] came to 0.99 nM. Also, in the assay with hGDF11 homodimer [2], the “IC50 … A204/Smad2 cells, 0.8 nM GDF11” value worked out at 1.2 nM. The values for the Kd (in assay [3]; with hGDF11 homodimer [4]) were 0.14 nM and 0.07 nM, respectively. The T1/2 in assay [3] was determined as 155 min; with hGDF11 homodimer [4] it was 221 min.

B14: 8D12-1 (antibody, V domains shown)
VH: QVQLVESGGGVVQPGRSLRLSCAASGFTFSRYGIHWVRQAPGKGLEWVAVISYDGSDEYYVDSVKGRFSISRDNSKNTLYLQMNSLRPADSAVYYCVKGDLELGFDYWGQGTLVTVSS
VL: DIVMTQAAPSIPVIPGESVSMSCRSSKSLLYSNGHTYVYWFVQRPGQSPQLLIYRMSNLASGVPDRFSGSGSGTAFTLRISRVEAEDVGVYYCMQNLEFPLTFGAGTKLELK
notes: probably the same antibody as 8D12
Regarding B14, the “IC50 … A204/Smad2 cells, 0.8 nM GDF8” value in assay [1] came to 2.4 nM. Further, in the assay with hGDF11 homodimer [2], the “IC50 … A204/Smad2 cells, 0.8 nM GDF11” value was > 25 nM. For the same molecule, in assay [3], binding was characterised by a dissociation constant (Kd) of 0.66 nM and the T1/2 turned out to be 95 min. In the assay with hGDF11 homodimer [4], this molecule returned a Kd of 1.87 nM and a T1/2 of 23 min.
